Data on two molecules can be found in paper PMC10652096 (The Journal of Biological Chemistry, 2023).

Assay [1] concerns the target human Hyper-IL-6 (HIL-6) (human). Briefly: cell-based or functional assay.
In assay [2] the target is Hyper IL-12 (HIL-12) (human). The assay is described as follows: cell-based or functional assay.
In assay [3] the target is T1, human Hyper-IL-6 (HIL-6) (human).
T1 construct: soluble IL-6 receptor (sIL-6R), human; flexible peptide linker; Interleukin 6 (IL-6), human; also called hHIL-6; source: recombinant, produced and purified as described (27)
Briefly: SPR; Fc fusion captured on a Protein A sensor chip, cytokine injected (HIL-6, HIL-12 50 to 0.1 nM, 30 μl/min, 120 s association, 300 s dissociation); 25 °C, PBS pH 7.4, 0.05% surfactant P20; 1:1 binding model; Biacore X100. Particulars: both partners purified.

The target in assay [4] is T2, Hyper IL-12 (HIL-12) (human).
T2 construct: IL-12/IL-23 subunit p40, human; flexible linker; IL-12 subunit p35, human; also called hHIL-12; FLAG-tagged HIL-12
The description is as above. The following applies: both partners purified.

B1: cs130-IL-12/23^VHHFc (Fc fusion)
chain: ELLDPCGYISPESPVVQLHSNFTAVCVLKEKCMDYFHVNANYIVWKTNHFTIPKEQYTIINRTASSVTFTDIASLNIQLTCNILTFGQLEQNVYGITIISGLPPEKPKNLSCIVNEGKKMRCEWDGGRETHLETNFTLKSEWATHKFADCKAKRDTPTSCTVDYSTVYFVNIEVWVEAENALGKVTSDHINFDPVYKVKPNPPHNLSVINSEELSSILKLTWTNPSIKSVIILKYNIQYRTKDASTWSQIPPEDTASTRSSFTVQDLKPFTEYVFRIRCMKEDGKGYWSDWSEEASGITYEDDVQFVESGGGSVHAGGSLRLNCATSGYIYSTYCMGWFRQAPGKEREGVAHIYTNSGRTYYADSVKGRFTISQDNAKNTVYLQMNSLKPEDTAIYYCAARPSIRCASFSATEYKDWGQGTQVTVSSRENLYFQMKYLLPTAAAGLLLLAAQPAMAEVQLVESGGGLVQAGGSLRLSCAASGRTFSWSAVGWFRQAPGKEREFVAAIRWSGGSPYYADSVKDRFTISRDNAKNTVYLQMNSLRPEDTAVYLCGETSLFPTSRGSHYDTWGQGTQVTVSSGSGWSHPQFEK
Consider B1, for which the “IC50 of inhibition of proliferation of Ba/F3-gp130 cells stimulated with 150 ng/ml IL-6 and 300 ng/ml sIL-6R (IL-6 trans-signaling via gp130; separate IL-6 and sIL-6R, not the fused HIL-6)” value in the assay with human Hyper-IL-6 (HIL-6) [1] was 0.56 nM. The “IC50 of inhibition of proliferation of Ba/F3-hIL-12Rβ1-hIL-12Rβ2 cells induced by 10 ng/ml HIL-12, 72 h, CellTiter-Blue” value with Hyper IL-12 (HIL-12) [2] was 7.81 nM. In the assay with human Hyper-IL-6 (HIL-6) [3], this molecule showed a Kd of 0.0289 nM, a koff of 7.02e-05 s⁻¹ and a kon of 2.43e+06 M⁻¹ s⁻¹. In the assay with Hyper IL-12 (HIL-12) [4], this molecule showed a Kd of 0.23 nM, a koff of 0.000163 s⁻¹ and a kon of 710000 M⁻¹ s⁻¹.

B2: cs130-TNF^VHHFc (Fc fusion)
chain: ELLDPCGYISPESPVVQLHSNFTAVCVLKEKCMDYFHVNANYIVWKTNHFTIPKEQYTIINRTASSVTFTDIASLNIQLTCNILTFGQLEQNVYGITIISGLPPEKPKNLSCIVNEGKKMRCEWDGGRETHLETNFTLKSEWATHKFADCKAKRDTPTSCTVDYSTVYFVNIEVWVEAENALGKVTSDHINFDPVYKVKPNPPHNLSVINSEELSSILKLTWTNPSIKSVIILKYNIQYRTKDASTWSQIPPEDTASTRSSFTVQDLKPFTEYVFRIRCMKEDGKGYWSDWSEEASGITYEDDVQFVESGGGSVHAGGSLRLNCATSGYIYSTYCMGWFRQAPGKEREGVAHIYTNSGRTYYADSVKGRFTISQDNAKNTVYLQMNSLKPEDTAIYYCAARPSIRCASFSATEYKDWGQGTQVTVSSGGGGSGGGGSGGGGTG
B2: the “IC50 of inhibition of proliferation of Ba/F3-gp130 cells stimulated with 150 ng/ml IL-6 and 300 ng/ml sIL-6R (IL-6 trans-signaling via gp130; separate IL-6 and sIL-6R, not the fused HIL-6)” value with human Hyper-IL-6 (HIL-6) [1] worked out at 0.51 nM. In the assay with human Hyper-IL-6 (HIL-6) [3], binding was put at a Kd of 0.0488 nM, the koff stood at 8.55e-05 s⁻¹ and the on-rate (kon) was found to be 1.75e+06 M⁻¹ s⁻¹.

A word on the Kd: it is the free concentration of one partner at which half of the binding sites on the other are occupied at equilibrium, for simple one-to-one binding. The low end stands for higher affinity, the high end for lower affinity. What is called koff is the first-order rate constant of dissociation. A higher koff goes with a short-lived complex. The kon is the second-order rate constant of association. Lower therefore signals slow association.
